Test results taken from patent US6429014B1, “Monoterpene synthases from grand fir (Abies grandis)” (Washington State University Research Foundation, priority 1997, dated 2002).

B1: ag9: recombinant terpinolene synthase from Grand fir encoded by clone ag9 (SEQ ID NO:77; protein SEQ ID NO:78) (protein, listed as Abies grandis)
chain: MALVSILPLSSKSVLHKSWIVSTYEHKAISRTIPNLGLRGRGKSVTHSLRMSLSTAVSDDHGVQRRIVEFHSNLWDDDFIQSLSTPYGAPSYRERADRLIVEVKGIFTSISAEDGELITPLNDLIQRLLMVDNVERLGIDRHFKNEIKAALDYVYSYWNEKGIGSGSDSGVADLNSTALGFRILRLHGYSVSSDVLEHFKEEKEKGQFVCSAIQTEEEIKSVLNLFRASLIAFPGEKVMEEAEIFSKIYLKEALQNIAVSSLSREIEYVLEDGWQTNMPRLETRNYIDVLGENDRDETLYMNMEKLLEIAKLEFNIFHSLQQRELKDLSRWWKDSGFSHLTFSRHRHVEFYALASCIETDRKHSGFRLGFAKMCHLITVLDDIYDTFGTMEELELFTAAFKRWDPSATDLLPEYMKGLYMVVYETVNEIAREADKSQGRETLNDARRAWEAYLDSYMKEAEWISSGYLPTFEEYMETSKVSFGYRIFALQPILTMDVPLTHHILQEIDFPLRFNDLICSILRLKNDTRCYKADRARGEEASCISCYMKENPGSTEEDAINHINAMVNNLIKEVNWELLRQDGTAHIACKKHAFDILKGSLHGYKYRDGFSVANKETKNWVRRTVLESVPL
B2: ag6: recombinant (−)-camphene synthase from Grand fir encoded by clone ag6 (SEQ ID NO:64; protein SEQ ID NO:65) (protein, listed as Abies grandis)
chain: MALLSITPLVSRSCLSSSHEIKALRRTIPTLGICRPGKSVAHSINMCLTSVASTDSVQRRVGNYHSNLWDDDFIQSLISTPYGAPDYRERADRLIGEVKDIMFNFKSLEDGGNDLLQRLLLVDDVERLGIDRHFKKEIKTALDYVNSYWNEKGIGCGRESVVTDLNSTALGLRTLRLHGYTVSSDVLNVFKDKNGQFSSTANIQIEGEIRGVLNLFRASLVAFPGEKVMDEAETFSTKYLREALQKIPASSILSLEIRDVLEYGWHTNLPRLEARNYMDVFGQHTKNKNAAEKLLELAKLEFNIFHSLQERELKHVSRWWKDSGSPEMTFCRHRHVEYYALASCIAFEPQHSGFRLGFTKMSHLITVLDDMYDVFGTVDELELFTATIKRWDPSAMECLPEYMKGVYMMVYHTVNEMARVAEKAQGRDTLNYARQAWEACFDSYMQEAKWIATGYLPTFEEYLENGKVSSAHRPCALQPILTLDIPFPDHILKEVDFPSKLNDLICIILRLRGDTRCYKADRARGEEASSISCYMKDNPGLTEEDALNHINFMIRDAIRELNWELLKPDNSVPITSKKHAFDISRVWHHGYRYRDGYSFANVETKSLVMRTVIEPVPL

Test: Terpene synthase assay and GC-MS / chiral GC product identification of recombinant enzymes expressed from pSBET in E. coli BL21(DE3) (Example 11)
Format: biochemical
Protocol: For functional expression, bacterial strains E. coli BL21(DE3)/pSAG2(M), E. coli BL21(DE3)/pSAG2(R), E. coli BL21(DE3)/pSAG3(R), E. coli BL21(DE3)/pSAG6(M), E. coli BL21(DE3/pSAG6(R), E. coli BL21(DE3)/pSAG8(M), E. coli BL21(DE3)/pSAG9(M), E. coli BL21(DE3)/pSAG11(M) and E. coli BL21(DE3)/SAG11(R) were grown to A600=0.5 at 37° C. in 5 ml of Luria-Bertani medium (Sambrook, J., Fritsch, E. F., and Maniatis, T. (1989) Molecular Cloning: A Laboratory Manual, 2nd Ed., pp. 7.20-7.43, Cold Spring Harbor, N.Y.) supplemented with 30 μg kanamycin/ml. Cultures were then induced by addition of 1 mM isopropyl-1-thio-β-D-galactopyranoside and grown for another 12 h at 20° C. Cells were harvested by centrifugation and disrupted by sonication followed by centrifugation, and the resulting soluble enzyme preparations were assayed for monoterpene, sesquiterpene and diterpene synthase activity using the appropriate radiolabeled substrate as described previously (Bohlmann, J., Steele, C. L., and Croteau, R. (1997) J. Biol. Chem. 272, 21784-21792). This assay involves the isolation and separation of terpene olefins and oxygenated terpenes by column chromatography on silica, followed by scintillation counting to determine conversion rate. GC-MS analysis is employed for product identification, by comparison of retention times and mass spectra to those of authentic standards (Bohlmann, J., Steele, C. L., and Croteau, R. (1997) J. Biol Chem. 272, 21784-21792); assignment of absolute configuration is based upon chiral column capillary GC and matching of retention time to that of the corresponding enantiomer (Lewinsohn, E., Savage, T. J., Gijzen, M., and Croteau, R. (1993) Phytochem. Anal. 4, 220-225). To insure production of sufficient material for identification, the standard assay (Bohlmann, J., Steele, C. L., and Croteau, R. (1997) J. Biol. Chem. 272, 21784-21792) was scaled up by a factor of 20.
Initially, the four pSBET plasmids pSAG6(M), pSAG8(M), pSAG9(M) and pSAG11(M), containing the full-length cDNA inserts of ag6 (SEQ ID NO:64), ag8 (SEQ ID NO:66), ag9 (SEQ ID NO:77) and ag11 (SEQ ID NO:68), respectively, were expressed in E. coli BL21(DE3). Extracts of the induced, transformed bacterial cells were assayed for monoterpene, sesquiterpene and diterpene synthase activity using the corresponding labeled C10, C15 and C20 prenyl diphosphate substrates (Bohlmann, J., Steele, C. L., and Croteau, R. (1997) J. Biol. Chem. 272, 21784-21792). […] Since it is known that the relatively large amino-terminal transit peptide of plant terpene synthases can impair expression of the functional preprotein in E. coli and promote the formation of intractable inclusion bodies (Williams, D. C., McGarvey, D. J., Katahira, E. J., and Croteau, R. (1998) Biochemisiry 37, 12213-12220), the“pseudomature” forms of ag6 (SEQ ID NO:64) and ag11 (SEQ ID NO:68) were prepared by truncation of the cDNAs to insert a starting methionine immediately upstream of their tandem arginine elements (R59R 60 for ag6 (SEQ ID NO:64), R^71R^72 for ag11 (SEQ ID NO:68)) for expression in E. coli BL21(DE3)/pSAG6(R) and E. coli BL21(DE3)/pSAG11(R). Similar truncations of previously characterized ag2.2 (SEQ ID NO:1) (myrcene synthase, R^64R^65) and ag3.18 (SEQ ID NO:3) ((−)-pinene synthase, (SEQ ID NO:5) R^64R^65) (Bohlmann, J., Steele, C. L., and Croteau, R. (1997) J. Biol. Chem. 272, 21784-21792) were prepared for expression from pSBET as controls for the possible alteration of product yield and distribution resulting from truncation.
Monoterpenes generated at preparative scale from geranyl diphosphate by the recombinant enzymes encoded by ag6 (SEQ ID NO:64), ag8 (SEQ ID NO:66), ag9 (SEQ ID NO:77) and ag11 (SEQ ID NO:68) were analyzed by GC-MS and chiral phase (β-cyclodextrin) capillary GC, and identified by comparison of retention times and mass spectra to authentic standards (FIGS. 6-9). […] The enzyme encoded by ag6 (SEQ ID NO:65) is therefore designated as (−)-1S,4R-camphene synthase. […]

[1] = from geranyl diphosphate, preparative scale

| Molecule | terpene synthase activity on expression from pSBET in E. coli BL21(DE3) (extracts of induced cells) | (−)-1S,5S-α-pinene share of monoterpene products [1] [%] | (−)-1S,5S-β-pinene share of monoterpene products [1] [%] | (−)-4S-limonene share of monoterpene products [1] [%] | terpinolene share of monoterpene products [1] [%] | (−)-1S,4R-camphene share of monoterpene products [1] [%] | prenyl diphosphate substrate yielding terpene olefin products (C10, C15, C20 tested) (truncated forms pSAG6(R), pSAG11(R) in E. coli BL21(DE3)) |
| --- | --- | --- | --- | --- | --- | --- | --- |
| B1 | Enzymatic production of terpene olefin(s) was observed | 18 | 10 | 11 | 42 |  |  |
| B2 |  | 32 |  | 7 |  | 54 | only geranyl diphosphate yielded high levels of terpene olefin products |
